Test results as given in patent publication US20250152742A1, “COMPOSITIONS AND METHODS FOR NEUROLOGICAL DISEASES” (Trames Bio, Inc., priority 2022, published 2025).
Changes are numbered by the printed parent chain. In names and notes the source's numbering stands. Where two headings read alike, the source gives them in different places.

Experiments:
[1] = target: SEQ ID NO: 33 (CODA71) versus wild type α7-nAChR (Homo sapiens, UniProt P36544, F159M/H163T/I152M/R155K/V154L/W156N/Y151P); assay: Sensitivity of parental chimera SEQ ID NO: 33 to ligands compared with wild type α7-nAChR
Text: To generate LGICs that conduct anion current following exposure to non-native small molecule agonists of the human α7-nAChR, chimeric ligand gated ion channel (LGIC) receptors comprising the ligand binding domain derived from the human α7 nicotinic acetylcholine receptor (α7-nAChR) and the chloride-conducting ion pore domain derived from the human GlyR1α were genetically engineered. […] SEQ ID NO:33 was approximate 2-fold less sensitive to nicotine and approximately 3-fold and 10-fold more sensitive to AZD-0328 and Facinicline/RG3487, respectively, than wild type. CODA71 is described in detail in WO2019104307 and WO2021035179, which are incorporated herein in their entireties.

[2] = system: engineered receptors and wild type nAchRa7 expressed in HEK293T cells; assay: High throughput electrophysiology (IonFlux HT/Mercury automated patch clamp), EC50; assay type: cell-based, human; conditions: for EC50: ligand TC-5619
Method: To confirm the […] determined by plate reader as well as develop a better understanding of maximum current flow, the engineered receptors were subjected to high throughput electrophysiology system, as described below. For HEK293T studies, cDNAs encoding ion channels were cloned into pcDNA3.1 using standard recombination techniques. HEK293T cells from Clontech (Lenti-XTM 293T Cell Line) were cultured in DMEM supplemented with 10% FBS and 1% Pen/Strep to 40-50% confluence using standard cell culture protocols, transfected with ion channel plasmids at a concentration of 18 μg per 15 cm dish using Fugene 6, and grown for an additional 24 hours. Cells were then assayed on an electrophysiological system (IonFluxHT and/or Mercury, Fluxion Biosciences) in which dose-response relationships may be assessed through a microfluidics-based platform for establishing whole cell configurations. Ensemble plates were primed with extracellular buffer (140 mM NaCl, 5 mM KCl, 2 mM CaCl2), 1 mM MgCl2, 10 mM HEPES, and 10 mM glucose, pH 7.2 with NaOH, mOsm 310), intracellular buffer (145 mM CsCl, 2 mM CaCl2, 2 mM MgCl2, 10 mM HEPES, and 10 mM EGTA, pH 7.2 with CsOH, mOsm 305), as adapted from Lynagh and Lynch, and test compounds (stocks prepared fresh) diluted in extracellular buffer. Cells were then released from the plate with Accutase, centrifuged, resuspended in extracellular buffer, and loaded into Ensemble plates. Cells were then subjected to a standard protocol for priming, trapping, breaking, and establishing whole cell configuration, with cells held at −60 mV throughout the recording. After recording baseline, progressive doses of test compounds were applied using the IonFlux software to assess dose response relationships. Data were then analyzed off-line using custom Python scripts to convert data to .csv format, re-plot traces, and apply QC measurements to reject unstable recordings (i.e. thresholding based on access resistance and/or standard deviation in baseline, as well as artifact rejection). Peak currents were then calculated, and population data were fit using a 4-parameter logistic equation as described by the Hill Equation. Currents were measured on an automated patch clamp system (Fluxion Biosciences) following 1 second addition of drug and the EC50 values calculated are tabulated below in Table 22A and Table 22B below and Table 21A and Table 21B above (in Example 2).

[3] = HEK293 Cell Line, Table 22A, read-out: High-throughput Ephys EC50 (uM) TC-5619
[4] = high throughput electrophysiology, read-out: TC-5619 EC50 (ephys)

B1: CODA71: parental chimeric LGIC: human α7-nAChR ligand binding domain with GlyRα1 Cys-loop fused to human GlyRα1 ion pore domain (protein)
chain: MRCSPGGVWLALAASLLHVSLQGEFQRKLYKELVKNYNPLERPVANDSQPLTVYFSLSLLQIMDVDEKNQVLTTNIWLQMSWTDHYLQWNVSEYPGVKTVRFPDGQIWKPDILLYNSADERFDATFHTNVLVNSSGHCQYLPPGIFKSSCPMDLKNFPMDVQTCKLKFGSWSYGGWSLDLQMQEADISGYIPNGEWDLVGIPGKRSERFYECCKEPYPDVTFTVTMRRRMGYYLIQMYIPSLLIVILSWISFWINMDAAPARVGLGITTVLTMTTQSSGSRASLPKVSYVKAIDIWMAVCLLFVFSALLEYAAVNFVSRQHKELLRFRRKRRHHKSPMLNLFQEDEAGEGRFNFSAYGMGPACLQAKDGISVKGANNSNTTNPPPAPSKSPEEMRKLFIQRAKKIDKISRIGFPMAFLIFNMFYWIIYKIVRREDVHNQ
modifications: synthetic sequence of chimeric LGIC
For B1, the “sensitivity to ABT-126 compared with wild type α7-nAChR” value ([1]; ligand ABT-126) was “approximately as sensitive”, the “fold more sensitive to AZD-0328 than wild type” value ([1]; ligand AZD-0328) was “approximately 3 fold” and the “fold more sensitive to Facinicline/RG3487 than wild type” value ([1]; ligand Facinicline/RG3487) was about 10 fold. The “sensitivity to TC-6987 compared with wild type α7-nAChR” value ([1]; ligand TC-6987) was “approximately as sensitive”, the “agonist activity of TC-6987 on the receptor” value ([1]; ligand TC-6987, similar to wild type) was “partial agonist activity” and the “sensitivity to acetylcholine compared with wild type α7-nAChR” value ([1]; ligand acetylcholine) was “approximately as sensitive”. For the same molecule, the “fold less sensitive to nicotine than wild type” value ([1]; ligand nicotine) was about 2 fold.

B2: COAD1055 (protein)
chain: B1 chain with R101W, Y115E, Y210W
modifications: synthetic sequence of chimeric LGIC
With B2 the EC50 [2, 3] was 0.0106 µM and the EC50 [2, 4] was 0.0106 µM.

B3: CODA806: engineered receptor: Y115D, L131Q in SEQ ID NO: 33 (Chemogenic receptor-11) (protein)
chain: B1 chain with Y115D, L131Q
modifications: synthetic sequence of chimeric LGIC
With B3 the “fold increased potency towards RG-3487 compared to wild type receptor” value ([2]; ligand RG-3487) was “over 10 fold” and the “fold reduced potency to acetylcholine compared to wild type receptor” value ([2]; ligand acetylcholine) was “over 500 fold”.

B4: COAD1056 (protein)
chain: B1 chain with R101F, Y115E, Y210W
modifications: synthetic sequence of chimeric LGIC
Molecule B4 has an EC50 [2, 3] of 0.042 µM and an EC50 [2, 4] of 0.0421 µM.
